Measured values reported in US20220298218A1 (ANTAG THERAPEUTICS, published 2022).
*1 amine or outer side, *2 acyl side, *3 side chain or, on linkers, in order; H or OH if unused. Where no end group is shown, it is not given here. Side-chain parts run from the residue outwards. The star is where a group is joined. C18 diacid = O=C(O)CCCCCCCCCCCCCCCCC(=O)*; C16 diacid = O=C(O)CCCCCCCCCCCCCCC(=O)*; γGlu = O=C(O)[C@H](CCC(=O)[*:2])N[*:1]; AEEA = NCCOCCOCC(=O)O

T1: human GIP receptor (human, UniProt P48546 22-466)
T1 sequence (looked up): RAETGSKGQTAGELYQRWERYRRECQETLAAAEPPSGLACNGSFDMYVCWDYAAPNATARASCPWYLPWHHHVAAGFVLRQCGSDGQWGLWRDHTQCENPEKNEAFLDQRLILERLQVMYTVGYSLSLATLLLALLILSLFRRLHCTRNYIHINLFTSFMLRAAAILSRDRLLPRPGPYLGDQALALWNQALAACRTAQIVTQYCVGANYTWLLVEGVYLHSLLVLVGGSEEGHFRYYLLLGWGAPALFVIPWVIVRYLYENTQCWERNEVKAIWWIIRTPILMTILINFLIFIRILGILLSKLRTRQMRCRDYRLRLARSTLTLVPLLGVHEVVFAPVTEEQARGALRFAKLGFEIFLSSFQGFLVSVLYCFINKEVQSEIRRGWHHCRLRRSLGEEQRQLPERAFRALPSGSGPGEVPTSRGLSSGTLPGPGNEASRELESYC

B1: AT472 (peptide)
peptide: EGTFISDYSIAMDKIK(C16 diacid)QQDFVNWLLAQKGPSS-OH
modifications: N-terminus assumed
SMILES: CC[C@H](C)[C@H](NC(=O)[C@H](CO)NC(=O)[C@H](Cc1ccc(O)cc1)NC(=O)[C@H](CC(=O)O)NC(=O)[C@H](CO)NC(=O)[C@@H](NC(=O)[C@H](Cc1ccccc1)NC(=O)[C@@H](NC(=O)CNC(=O)[C@@H](N)CCC(=O)O)[C@@H](C)O)[C@@H](C)CC)C(=O)N[C@@H](C)C(=O)N[C@@H](CCSC)C(=O)N[C@@H](CC(=O)O)C(=O)N[C@@H](CCCCN)C(=O)N[C@H](C(=O)N[C@@H](CCCCNC(=O)CCCCCCCCCCCCCCC(=O)O)C(=O)N[C@@H](CCC(N)=O)C(=O)N[C@@H](CCC(N)=O)C(=O)N[C@@H](CC(=O)O)C(=O)N[C@@H](Cc1ccccc1)C(=O)N[C@H](C(=O)N[C@@H](CC(N)=O)C(=O)N[C@@H](Cc1c[nH]c2ccccc12)C(=O)N[C@@H](CC(C)C)C(=O)N[C@@H](CC(C)C)C(=O)N[C@@H](C)C(=O)N[C@@H](CCC(N)=O)C(=O)N[C@@H](CCCCN)C(=O)NCC(=O)N1CCC[C@H]1C(=O)N[C@@H](CO)C(=O)N[C@@H](CO)C(=O)O)C(C)C)[C@@H](C)CC
B2: AT471 (peptide)
peptide: EGTFISDYSIAMDKIK(C16 diacid)QQDFVNWLLAQKGPSSG-OH
modifications: N-terminus assumed
SMILES: CC[C@H](C)[C@H](NC(=O)[C@H](CO)NC(=O)[C@H](Cc1ccc(O)cc1)NC(=O)[C@H](CC(=O)O)NC(=O)[C@H](CO)NC(=O)[C@@H](NC(=O)[C@H](Cc1ccccc1)NC(=O)[C@@H](NC(=O)CNC(=O)[C@@H](N)CCC(=O)O)[C@@H](C)O)[C@@H](C)CC)C(=O)N[C@@H](C)C(=O)N[C@@H](CCSC)C(=O)N[C@@H](CC(=O)O)C(=O)N[C@@H](CCCCN)C(=O)N[C@H](C(=O)N[C@@H](CCCCNC(=O)CCCCCCCCCCCCCCC(=O)O)C(=O)N[C@@H](CCC(N)=O)C(=O)N[C@@H](CCC(N)=O)C(=O)N[C@@H](CC(=O)O)C(=O)N[C@@H](Cc1ccccc1)C(=O)N[C@H](C(=O)N[C@@H](CC(N)=O)C(=O)N[C@@H](Cc1c[nH]c2ccccc12)C(=O)N[C@@H](CC(C)C)C(=O)N[C@@H](CC(C)C)C(=O)N[C@@H](C)C(=O)N[C@@H](CCC(N)=O)C(=O)N[C@@H](CCCCN)C(=O)NCC(=O)N1CCC[C@H]1C(=O)N[C@@H](CO)C(=O)N[C@@H](CO)C(=O)NCC(=O)O)C(C)C)[C@@H](C)CC
B3: AT473 (peptide)
peptide: EGTFISDYSIAMDKIK(C16 diacid)QQDFVNWLLAQKGPS-OH
modifications: N-terminus assumed
SMILES: CC[C@H](C)[C@H](NC(=O)[C@H](CO)NC(=O)[C@H](Cc1ccc(O)cc1)NC(=O)[C@H](CC(=O)O)NC(=O)[C@H](CO)NC(=O)[C@@H](NC(=O)[C@H](Cc1ccccc1)NC(=O)[C@@H](NC(=O)CNC(=O)[C@@H](N)CCC(=O)O)[C@@H](C)O)[C@@H](C)CC)C(=O)N[C@@H](C)C(=O)N[C@@H](CCSC)C(=O)N[C@@H](CC(=O)O)C(=O)N[C@@H](CCCCN)C(=O)N[C@H](C(=O)N[C@@H](CCCCNC(=O)CCCCCCCCCCCCCCC(=O)O)C(=O)N[C@@H](CCC(N)=O)C(=O)N[C@@H](CCC(N)=O)C(=O)N[C@@H](CC(=O)O)C(=O)N[C@@H](Cc1ccccc1)C(=O)N[C@H](C(=O)N[C@@H](CC(N)=O)C(=O)N[C@@H](Cc1c[nH]c2ccccc12)C(=O)N[C@@H](CC(C)C)C(=O)N[C@@H](CC(C)C)C(=O)N[C@@H](C)C(=O)N[C@@H](CCC(N)=O)C(=O)N[C@@H](CCCCN)C(=O)NCC(=O)N1CCC[C@H]1C(=O)N[C@@H](CO)C(=O)O)C(C)C)[C@@H](C)CC
B4: AT415 (peptide)
peptide: EGTFISDYSIAMDKIK([AEEA-AEEA-γGlu-C16 diacid])QQDFVNWLLAQKGKKNDW-OH
modifications: N-terminus assumed
SMILES: CC[C@H](C)[C@H](NC(=O)[C@H](CO)NC(=O)[C@H](Cc1ccc(O)cc1)NC(=O)[C@H](CC(=O)O)NC(=O)[C@H](CO)NC(=O)[C@@H](NC(=O)[C@H](Cc1ccccc1)NC(=O)[C@@H](NC(=O)CNC(=O)[C@@H](N)CCC(=O)O)[C@@H](C)O)[C@@H](C)CC)C(=O)N[C@@H](C)C(=O)N[C@@H](CCSC)C(=O)N[C@@H](CC(=O)O)C(=O)N[C@@H](CCCCN)C(=O)N[C@H](C(=O)N[C@@H](CCCCNC(=O)COCCOCCNC(=O)COCCOCCNC(=O)CC[C@H](NC(=O)CCCCCCCCCCCCCCC(=O)O)C(=O)O)C(=O)N[C@@H](CCC(N)=O)C(=O)N[C@@H](CCC(N)=O)C(=O)N[C@@H](CC(=O)O)C(=O)N[C@@H](Cc1ccccc1)C(=O)N[C@H](C(=O)N[C@@H](CC(N)=O)C(=O)N[C@@H](Cc1c[nH]c2ccccc12)C(=O)N[C@@H](CC(C)C)C(=O)N[C@@H](CC(C)C)C(=O)N[C@@H](C)C(=O)N[C@@H](CCC(N)=O)C(=O)N[C@@H](CCCCN)C(=O)NCC(=O)N[C@@H](CCCCN)C(=O)N[C@@H](CCCCN)C(=O)N[C@@H](CC(N)=O)C(=O)N[C@@H](CC(=O)O)C(=O)N[C@@H](Cc1c[nH]c2ccccc12)C(=O)O)C(C)C)[C@@H](C)CC
B5: AT474 (peptide)
peptide: EGTFISDYSIAMDKIK(C16 diacid)QQDFVNWLLAQKGP-OH
modifications: N-terminus assumed
SMILES: CC[C@H](C)[C@H](NC(=O)[C@H](CO)NC(=O)[C@H](Cc1ccc(O)cc1)NC(=O)[C@H](CC(=O)O)NC(=O)[C@H](CO)NC(=O)[C@@H](NC(=O)[C@H](Cc1ccccc1)NC(=O)[C@@H](NC(=O)CNC(=O)[C@@H](N)CCC(=O)O)[C@@H](C)O)[C@@H](C)CC)C(=O)N[C@@H](C)C(=O)N[C@@H](CCSC)C(=O)N[C@@H](CC(=O)O)C(=O)N[C@@H](CCCCN)C(=O)N[C@H](C(=O)N[C@@H](CCCCNC(=O)CCCCCCCCCCCCCCC(=O)O)C(=O)N[C@@H](CCC(N)=O)C(=O)N[C@@H](CCC(N)=O)C(=O)N[C@@H](CC(=O)O)C(=O)N[C@@H](Cc1ccccc1)C(=O)N[C@H](C(=O)N[C@@H](CC(N)=O)C(=O)N[C@@H](Cc1c[nH]c2ccccc12)C(=O)N[C@@H](CC(C)C)C(=O)N[C@@H](CC(C)C)C(=O)N[C@@H](C)C(=O)N[C@@H](CCC(N)=O)C(=O)N[C@@H](CCCCN)C(=O)NCC(=O)N1CCC[C@H]1C(=O)O)C(C)C)[C@@H](C)CC
B6: AT442 (peptide)
peptide: SGTFISDYSIAMDRIK([AEEA-AEEA-AEEA-γGlu-C18 diacid])QQDFVNWLLAQRGPSSGAPPPS-OH
modifications: N-terminus assumed
SMILES: CC[C@H](C)[C@H](NC(=O)[C@H](CO)NC(=O)[C@H](Cc1ccc(O)cc1)NC(=O)[C@H](CC(=O)O)NC(=O)[C@H](CO)NC(=O)[C@@H](NC(=O)[C@H](Cc1ccccc1)NC(=O)[C@@H](NC(=O)CNC(=O)[C@@H](N)CO)[C@@H](C)O)[C@@H](C)CC)C(=O)N[C@@H](C)C(=O)N[C@@H](CCSC)C(=O)N[C@@H](CC(=O)O)C(=O)N[C@@H](CCCNC(=N)N)C(=O)N[C@H](C(=O)N[C@@H](CCCCNC(=O)COCCOCCNC(=O)COCCOCCNC(=O)COCCOCCNC(=O)CC[C@H](NC(=O)CCCCCCCCCCCCCCCCC(=O)O)C(=O)O)C(=O)N[C@@H](CCC(N)=O)C(=O)N[C@@H](CCC(N)=O)C(=O)N[C@@H](CC(=O)O)C(=O)N[C@@H](Cc1ccccc1)C(=O)N[C@H](C(=O)N[C@@H](CC(N)=O)C(=O)N[C@@H](Cc1c[nH]c2ccccc12)C(=O)N[C@@H](CC(C)C)C(=O)N[C@@H](CC(C)C)C(=O)N[C@@H](C)C(=O)N[C@@H](CCC(N)=O)C(=O)N[C@@H](CCCNC(=N)N)C(=O)NCC(=O)N1CCC[C@H]1C(=O)N[C@@H](CO)C(=O)N[C@@H](CO)C(=O)NCC(=O)N[C@@H](C)C(=O)N1CCC[C@H]1C(=O)N1CCC[C@H]1C(=O)N1CCC[C@H]1C(=O)N[C@@H](CO)C(=O)O)C(C)C)[C@@H](C)CC

Biological target: T1, human GIP receptor
Assay: cell-based or functional assay

| Binder | cAMP agonism % Emax [%] | cAMP antagonism [nM] | cAMP antagonism % inhib [%] | cAMP antagonism pIC50 |
| --- | --- | --- | --- | --- |
| B1 | 0 | 7.94 | 90 | 8.1 |
| B2 | 0 | 6.81 | 87 | 8.2 |
| B3 | 0 | 2.93 | 88 | 8.5 |
| B4 | 0 | 13.6 | 87 | 7.9 |
| B5 | 0 | 13.6 | 86 | 7.9 |

Biological target: T1, human GIP receptor
Assay: cell-based or functional assay
Remark: another data set of the same source

| Binder | cAMP antagonism [nM] | cAMP antagonism % inhib [%] | cAMP antagonism log [log M] | cAMP agonism Emax |
| --- | --- | --- | --- | --- |
| B1 | 15 | 100 | -7.8 |  |
| B2 | 11 | 100 | -7.9 |  |
| B6 | 26 | 77 | -7.6 |  |
| B3 | 26 | 100 | -7.6 |  |
| B4 | 55 | 87 | -7.3 | 4.6 |
| B5 | 4 | 100 | -8.4 | 5.9 |
